experiment: soluble on expression in E. coli; label from the status in PepcDB or PDB records

Sequence	soluble on expression in E. coli
MIWLVLVLSLFLFSCEKLNEIFLEEDLLQRPPSKRCSDCHAKIYEDWEKSRHAKAWVSEHFKEESENYSKLKCLSCHAPHQVDPLKKPVLRVERRHEGVNCIACHFKEETKAMHGPYKVFSPPHPSREDKNYTKSEICAGCHQKTYREWKIARVKTTCQQCHMKVVDYAWIMDKFPFFLFHSRKALHDHTFPAGKATPKDIKLILTEGALNIINVGIPHNLPTADQGNPKLYLIIEFYYKDGKKKVLRRVLSPQAKTALAYLIPYTVKIPRYEKLEKVRVSIYRRLAWEKKRELILSEELKKPF	not soluble
MIYRKATEKDIAQLVELRKKQLEDEGIAPINNIDTELTHFFELSFKKNSFISWISEEDNEIIATSGVCFYKYPPSYLNPSGKVAYITNMYTKYEYRSRGIALALLKLVILEAKKRDYLFLRLHASDMGRPIYEEIGFKPFDDFMEMNLSLNRNGELEHHHHHH	soluble
MIYTVTLNPSIDYVVQVNSLDLGAVNRAEKDMKFPGGKGINVSRVLHRLGVENVALGFTGGFTGRFIKDVLQTEGVITNFVQVDGDSRINVKIKGQEETELNGQGPSVTNEQFEQLMKQIESMQKGDYVVLAGSVPASIPTTFYESIAAFGAEKGIRVVVDASGSALQHVVKNKPFLIKPNHHELGELFGVEISTAEDILPYGRKLIEQGVEHVIVSMAGDGALLFTAEGIYEATVPKGVVINSVGAGDSLVAGFVGKYEQTKDIEKAFQYGVATGSATAFSADLCEKEKVEELLSQVIVTKR	not soluble
MKAKREALISLFHAIKEEKVDSDIIDLLLLINSIKGIYTTSSCSGRIGILEEPSLGAKPLSRWLIKVHRPMSFEEARDALKRAREGLIFLKSQPPIFHVVAETIENAKLVHEIGLASGFKYTTFKAISSRFLVEINGTEYLTVPLGKDGRIIASDEYLKFAISIGNKMLERGKSKLPRLRDNFEKIKKKLGEDPLFIQLKREILEI	soluble
MKARQQKYCDKIANFWCHPTGKIIMSLAGKKIVLGVSGGIAAYKTPELVRRLRDRGADVRVAMTEAAKAFITPLSLQAVSGYPVSDSLLDPAAEAAMGHIELGKWADLVILAPATADLIARVAAGMANDLVSTICLATPAPVAVLPAMNQQMYRAAATQHNLEVLASRGLLIWGPDSGSQACGDIGPGRMLDPLTIVDMAVAHFSPVNDLKHLNIMITAGPTREPLDPVRYISNHSSGKMGFAIAAAAARRGANVTLVSGPVSLPTPPFVKRVDVMTALEMEAAVNASVQQQNIFIGCAAVADYRAATVAPEKIKKQATQGDELTIKMVKNPDIVAGVAALKDHRPYVVGFAAETNNVEEYARQKRIRKNLDLICANDVSQPTQGFNSDNNALHLFWQDGDKVLPLERKELLGQLLLDEIVTRYDEKNRR	not soluble
MKATSEELAIFVAVVESGSFSRAAEQLGQANSAVSRAVKKLEMKLGVSLLNRTTRQLSLTEEGERYFRRVQQILQEMAAAETEIMESRNTPRGLLRIDAATPVMLHFLMPLIKPFRERYPEITLSLVSSETFINLIERKVDVAIRAGTLTDSSLRARPLFTSYRKIIASPDYIARFGKPETVEELKRHLCLGFSEPVSLNTWPIACSDGQLHEIKCGISSNSGETLKQLCLNGNGIACLSDYMIDKEIARGELVELLADKRLPVEMPFSAVYYSDRAVSTRIRAFIDFLSEYIRTAPAGAVKEG	not soluble
MKAVVFDFDGTMLDTENLWYTETMKYLKDTYNIDLPDEIYQQIIGTSEEPIISYMMEATNGAFDKEAFLTTVAEACHLGQQSLGFRNGFKEFFEQVKANGYKIGLATSSGFDWIEPTLDRLGILADFETIQTADHVEEIKPHPALYLQAVEALGVKPEEAIAIEDSKNGALSALQAGLKVYIVPNEATKNITFPKEATVVSSFAEIKLK	not soluble
MKAYDIEIVNDAAHAGEANHGWCFGLPPGIRPEQWPLDPDTGYPLMHGFTLLLPEDYRVHGPEIVALSFFSLAPDQNDGGPTSVDGIREMLIDPPAQPPAEAELRPFWEAGRNSHPRLHRMEDILGGAYALILLDAAEFSGAPCQPRALPAGNPLLAQTEPPQWLEAGSAASFVPDWAEDDYYLLRALGGRPAAGHQQRYPLRWTARAQDPNAGVVPSEYGDGGYQLPHYWLDGKIERDNYREHPWVEGHLPNHIGGTMRPVQGVPEMSPFYVEFEEYLGGYNFGGGNAQLDFRDMRFDWACG	not soluble
MKCAICDSVALSLHFGAPSCKACAAFFRRTVALDITYDCITGTLDCEVNFERRMACKRCRYQKCIDNNMQRYLVQSKKGRPDASTANGIENPTTSASPSIPSPFSPPCPSSHNSAPSGLLSPMETDEIQKLNEHFFKMDSNLNKSRRMAFTDSRLLDIFSGVCKMPFEKHQLQPFDFRSYRGYQKQEYVMLFNYANTLPGFQELSNASQNFLFRIACGVDYVISSSYYTLCIGTESNLLINQDGTYIQMMPLPLMGDEPGTELMFTRKEELEKYRNIIKPRVNSWLEFIPLFKSLELSFEENAILKALCCWQTAHFKLEECDKENVRKQKSLLVQCLLKFCIDTYGEEEGPARAGNIILFSSSISVSLMGTSRNVVYGLKLPYISKS	not soluble
MKCPYCGHPDTRVVDSRPSDEGMAIRRRRECPSCGRRFTTYERTQLEPLMVVKRDGRKEPFNPDKLLRGLLLACEKRPVSEEVLRRFAYTFEDQVSGPEITSEEIGLKALAFLKELDHVAYIRFASVYREFDSVERFIEEIRSLASLN	soluble
MKCTECSHEAGVSSFRYLYNARIDAPITLRQCPQCQAWLAVDEMAGEARQRVDAGEAPWGKSAGIEGLAEDAR	not soluble
MKCTKCGKPASVKLRHYNIKLCKEHFNEFIEQRVEKAIKKFKMFGRNSKILIAVSGGKDSVSLWHMLKKLGYEVDALFIRAGKSGMVQKAQEIVEKNAELLNTKLHIVDATEYFGGLSTQEISIMLRRPVCSICGVVRRYLMNKFAYENGYDVVVTGHNLNDEASVLLGNILHWQEGYLERQWPLLPKTHEKLVPKAKPLVLNYEEDIKLYATLNEIPHLEMACPFSVGATSLVYKKILRELEEEQPGITLNFYLGFLKRKKEPKFEVEGLRECKECGYPTTAEVCSFCRLRKQVEKRKNKTPA	soluble
MKDDKTILILTAQFGAGHISAAKAVKECIIEKYSNYNVVIQNFINASIPMMNKPMVKLYENNTKYTPGLYNYYYYFKKSFDSRHDLSHKLYTPKLSEYIADINPDLIISTFPLAAACVNNFKIKNPDINIPTLTVITDVVDSMEWVFENTDLYFVPSPEIKNRFFQKGINPDSIKVTGVPLEHHHHHH	not soluble
MKDFPIRFVLTDEAITPSAGLALVGYLLHQTKLNKRVNALRPPTVRRDVHISHSDVIRSMIGLLATGKTDFDHIEAYRQDDIFSTSMGIQHVPSSPTLRQRLDQLACLPMTETILWEESMRLLIQRHATLSPCWAKGKTTWLPLDIDGSPFDNSDTKKEGVSRTYKGFDGFTPLFAYAGKEGYIVHAELRPGKQHVQDNMPSFLTTAIRRARQLTSSRLLVRMDAGNDAEANVHVCLKEDVDFVIKRNLRRESKALWFQIASQKGKRVDDGQTEGVQTYELCLPQTAAIDGNTYTYVQVTQVTERTMERNGQVMLVPNYEVESYWVRLKGYEHVRMSDVLALYHDHATCEQFHSELKSDLDLERLPSGKMKTNALVLVMGAFVYNLLRLIGQDLLSDPRHPLHHKVKRRRIKTIIQTVITMAGRLVRRSRQLWMKLTRRSGYSILLLNVYQKWKEAR	not soluble
MKDKDLLVLAAKAADDKRAEDMVVLNMQGISPIADYFIICHGNSDKQVQAIAREIKAKAHEFQIDVQRMEGFDEARWVLVDLGDVVAHVFHKDERNHYNLERLWGDVPREDITEELGQLEHHHHHH	not soluble
MKEAGILFEELVSIMEKLRSPEGCEWDRKQTHESLKPYLIEECYELIEAIDEKNDDMMKEELGDVLLQVVFHAQIARERGAFTIEDVIRTLNEKLIRRHPHVFGDSPGYSYKQWEDIKAQEKGKKKSSRIGEINPLVPALSMARRIQENASQVGFDWKDPEGVYEKIEEELKELKEAKDPRELEEEFGDLLFSIVNLSRFLNVDPESALRKATRKFVERFKKMEELIEKDGLVLEELPIEKLDEYWEKAKGGDET	soluble
MKEAMNNHKKLGILLANLGTPQAPTSQAVKAFLSQFLHDQRVVDMSRWLWCPLLHGIILPTRSPKVAKLYQSIWMDEGSPLMVYSRRQRDKLAELSQRPVELGMTYGEPSLLEGVRKLQQQGVEQIVVLPLYPQYSATTTAAVFDGLAKALRQLPVVPELHFIRDYHDHPLYIQALAKSVRASWQQHGQGDLLLCSYHGIPKRYAQNGDIYPEHCLKTTELLAQALGLPQDKVMMTYQSQFGKEEWLQPYTDKTMEALPRQGIKKLDVICPAFSVDCLETLEEIAEQNQEIFLHSGGEAFHYVPCLNDSQSHIELMAALVKVDC	not soluble
MKEEKRSSTGFLVKQRAFLKLYMITMTEQERLYGLKLLEVLRSEFKEIGFKPNHTEVYRSLHELLDDGILKQIKVKKEGAKLQEVVLYQFKDYEAAKLYKKQLKVELDRSKKLIEKALSDNF	soluble
MKEIKIGLIGFGTIGTGVAKLLQANAGLIADKVGAMVTLKKIADLDVTTDRGIELPPGTLTSNVADVLDDPEISVVIELIGGYEPAKSFVLRAINNGKHVVTANKALLALHGEEIYPAAAAKGVQVLFEAAVGGGIPVISAILGNMAANNFTTVLGILNGTCNYILTRMTQEGADFGDVLKTAQELGYAEADPTFDIEGVDTAHKLALLVSLCFGTKVDFNAIHTEGISSISSADIGFARDFGYKIKLLAIGKRTGDTVEARVHPTMIPVNYPLADVDGVFNAIRFTGDFIGPVMFYGRGAGMDPTASAVVGDVIEIARNIIAGVSRRCAPLGYRDEAVTTLALKPMGEIEGKYYLRFSAVDKPGVLAKISGALGKYDISIESMIQKGRSAGESVPIVIMTHEAREKDIRAALEEIDTFELISEKSRFIRIEDNLE	not soluble
MKEKEKIYRHLTEEEISVLEGNYCQCADWTMVEVADGFDANRCLHVMFSGQIRIGSTRGSHLLPGGLHVPTGINIARLHNCIVGDEVVIFHVNSYLANYRIGDYTRIENIDTIAVTESTSFGNGVEVTVLNETGGREVTITDNLTAQTAYLMAMYRHDKVLTESLAAMARAYAESRRSDMGAIGSHVVIHGCNTIENVCIGDYTEITGASHLCNGSINSKKEAPVSVGYNVVCRDFILCSGSSVTDGATVSHCFVGQGTHLGHLFSAHDSLFFANCQGENGEACAVFAGPYTVSMHK	not soluble
MKEKEYLFSLDMKVRDYECDLQGVVNNSNYQRYMEHTRHEFWESLGDNFGQMHEKGLDAFVYKVTITFKQSLRSGDRFRSCLTCHKKGPKLIFMQDIIREDGVMAARGEVEVVAVQDGVLTRGEYFDVLMKDILSKTTKLEHHHHHH	soluble
